Results as given in article PMC10397247.
Each block holds one binder with its values, some of them ahead of it.

Legend:
4H2290-AA = biological target: T1, 4H2290-AA; experiment: two-hybrid library CCmax;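 also: natural log of median RNA to DNA barcode read ratio; higher means stronger binding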
T1 chain: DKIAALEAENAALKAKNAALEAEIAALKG

4H2447-AA = biological target: T2, 4H2447-AA; experiment: two-hybrid library CCmax; settings: mean of both orientations;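 also: natural log of median RNA to DNA barcode read ratio; higher means stronger binding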
T2 chain: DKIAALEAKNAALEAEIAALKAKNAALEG

4H2458-AA = biological target: T3, 4H2458-AA; experiment: two-hybrid library CCmax; settings: mean of both orientations;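 also: natural log of median RNA to DNA barcode read ratio; higher means stronger binding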
T3 chain: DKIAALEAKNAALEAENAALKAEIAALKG

4H3330-AA = biological target: T4, 4H3330-AA; experiment: two-hybrid library CCmax; settings: mean of both orientations;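 also: natural log of median RNA to DNA barcode read ratio; higher means stronger binding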
T4 chain: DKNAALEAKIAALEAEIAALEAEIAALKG

4H716-AA = biological target: T5, 4H716-AA; experiment: two-hybrid library CCmax; settings: mean of both orientations;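 also: natural log of median RNA to DNA barcode read ratio; higher means stronger binding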
T5 chain: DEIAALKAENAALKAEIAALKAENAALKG

4H733-AA = biological target: T6, 4H733-AA; experiment: two-hybrid library CCmax; settings: mean of both orientations;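 also: natural log of median RNA to DNA barcode read ratio; higher means stronger binding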
T6 chain: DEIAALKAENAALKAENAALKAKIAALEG

4H807-AA = biological target: T7, 4H807-AA; experiment: two-hybrid library CCmax; settings: mean of both orientations
T7 chain: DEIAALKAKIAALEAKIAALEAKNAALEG

APC1015-AA = biological target: T8, APC1015-AA; experiment: two-hybrid library CCmax; settings: mean of both orientations
T8 chain: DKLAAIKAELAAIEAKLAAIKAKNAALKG

APC1434-AA = biological target: T9, APC1434-AA; experiment: two-hybrid library CCmax; settings: mean of both orientations
T9 chain: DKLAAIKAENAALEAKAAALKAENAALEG

APC2237-AA = biological target: T10, APC2237-AA; experiment: two-hybrid library CCmax; settings: mean of both orientations
T10 chain: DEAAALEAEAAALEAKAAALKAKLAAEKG

APC232-AA = biological target: T11, APC232-AA; experiment: two-hybrid library CCmax; settings: mean of both orientations
T11 chain: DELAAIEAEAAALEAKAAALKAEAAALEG

APC2405-AA = biological target: T12, APC2405-AA; experiment: two-hybrid library CCmax; settings: mean of both orientations
T12 chain: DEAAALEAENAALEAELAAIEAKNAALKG

APC3645-AA = biological target: T13, APC3645-AA; experiment: two-hybrid library CCmax; settings: mean of both orientations
T13 chain: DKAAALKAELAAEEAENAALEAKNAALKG

APC4011-AA = biological target: T14, APC4011-AA; experiment: two-hybrid library CCmax; settings: mean of both orientations
T14 chain: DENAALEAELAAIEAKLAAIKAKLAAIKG

APC4264-AA = biological target: T15, APC4264-AA; experiment: two-hybrid library CCmax; settings: mean of both orientations
T15 chain: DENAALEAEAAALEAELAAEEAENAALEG

APC4436-AA = biological target: T16, APC4436-AA; experiment: two-hybrid library CCmax; settings: mean of both orientations
T16 chain: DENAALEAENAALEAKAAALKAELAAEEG

APC5383-AA = biological target: T17, APC5383-AA; experiment: two-hybrid library CCmax; settings: mean of both orientations
T17 chain: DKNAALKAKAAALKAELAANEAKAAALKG

APC6108-AA = biological target: T18, APC6108-AA; experiment: two-hybrid library CCmax; settings: mean of both orientations
T18 chain: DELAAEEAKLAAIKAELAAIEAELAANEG

APC7099-AA = biological target: T19, APC7099-AA; experiment: two-hybrid library CCmax; settings: mean of both orientations
T19 chain: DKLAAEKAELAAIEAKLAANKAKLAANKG

APC8191-AA = biological target: T20, APC8191-AA; experiment: two-hybrid library CCmax; settings: mean of both orientations
T20 chain: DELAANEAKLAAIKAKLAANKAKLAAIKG

APC8910-AA = biological target: T21, APC8910-AA; experiment: two-hybrid library CCmax; settings: mean of both orientations
T21 chain: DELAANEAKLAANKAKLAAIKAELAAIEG

APC9096-AA = biological target: T22, APC9096-AA; experiment: two-hybrid library CCmax; settings: mean of both orientations
T22 chain: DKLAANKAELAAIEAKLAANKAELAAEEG

APC9319-AA = biological target: T23, APC9319-AA; experiment: two-hybrid library CCmax; settings: mean of both orientations
T23 chain: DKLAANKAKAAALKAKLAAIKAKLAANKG

O14-bS = biological target: T24, O14-bS; experiment: two-hybrid library CCNG1
T24 chain: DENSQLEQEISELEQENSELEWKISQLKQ

O16-bS = biological target: T25, O16-bS; experiment: two-hybrid library CCNG1
T25 chain: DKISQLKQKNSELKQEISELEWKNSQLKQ

O2-bS = biological target: T26, O2-bS; experiment: two-hybrid library CCNG1
T26 chain: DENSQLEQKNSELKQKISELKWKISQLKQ

O3-bS = biological target: T27, O3-bS; experiment: two-hybrid library CCNG1
T27 chain: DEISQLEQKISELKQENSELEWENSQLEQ

O4-bS = biological target: T28, O4-bS; experiment: two-hybrid library CCNG1
T28 chain: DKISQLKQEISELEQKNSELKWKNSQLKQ

O5-bS = biological target: T29, O5-bS; experiment: two-hybrid library CCNG1
T29 chain: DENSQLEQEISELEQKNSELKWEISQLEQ

O6-bS = biological target: T30, O6-bS; experiment: two-hybrid library CCNG1
T30 chain: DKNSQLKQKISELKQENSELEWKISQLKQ

O7-bS = biological target: T31, O7-bS; experiment: two-hybrid library CCNG1
T31 chain: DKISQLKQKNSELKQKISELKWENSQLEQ

O8-bS = biological target: T32, O8-bS; experiment: two-hybrid library CCNG1
T32 chain: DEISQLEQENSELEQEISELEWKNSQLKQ

P8A-bN = biological target: T33, P8A-bN; experiment: two-hybrid library CCNG1
T33 chain: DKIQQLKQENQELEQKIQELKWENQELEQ

4H1405-AA = biological target: T34, 4H1405-AA; experiment: two-hybrid library CCmax
T34 chain: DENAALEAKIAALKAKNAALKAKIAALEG

4H175-AA = biological target: T35, 4H175-AA; experiment: two-hybrid library CCmax
T35 chain: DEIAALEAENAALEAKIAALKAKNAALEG

4H2211-AA = biological target: T36, 4H2211-AA; experiment: two-hybrid library CCmax; settings: mean of both orientations
T36 chain: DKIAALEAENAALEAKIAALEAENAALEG

4H2238-AA = biological target: T37, 4H2238-AA; experiment: two-hybrid library CCmax; settings: mean of both orientations
T37 chain: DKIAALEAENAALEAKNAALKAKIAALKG

4H2513-AA = biological target: T38, 4H2513-AA; experiment: two-hybrid library CCmax; settings: mean of both orientations
T38 chain: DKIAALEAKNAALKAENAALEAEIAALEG

4H2536-AA = biological target: T39, 4H2536-AA; experiment: two-hybrid library CCmax; settings: mean of both orientations
T39 chain: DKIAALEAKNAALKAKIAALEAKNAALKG

4H2608-AA = biological target: T40, 4H2608-AA; experiment: two-hybrid library CCmax; settings: mean of both orientations
T40 chain: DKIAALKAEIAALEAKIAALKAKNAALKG

4H2614-AA = biological target: T41, 4H2614-AA; experiment: two-hybrid library CCmax; settings: mean of both orientations
T41 chain: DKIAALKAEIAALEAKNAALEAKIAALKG

4H2726-AA = biological target: T42, 4H2726-AA; experiment: two-hybrid library CCmax; settings: mean of both orientations
T42 chain: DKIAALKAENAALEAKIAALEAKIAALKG

4H2935-AA = biological target: T43, 4H2935-AA; experiment: two-hybrid library CCmax; settings: mean of both orientations
T43 chain: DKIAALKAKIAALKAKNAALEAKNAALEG

4H327-AA = biological target: T44, 4H327-AA; experiment: two-hybrid library CCmax; settings: mean of both orientations
T44 chain: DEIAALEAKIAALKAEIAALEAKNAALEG

4H3605-AA = biological target: T45, 4H3605-AA; experiment: two-hybrid library CCmax; settings: mean of both orientations
T45 chain: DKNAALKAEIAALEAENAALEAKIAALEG

4H3625-AA = biological target: T46, 4H3625-AA; experiment: two-hybrid library CCmax; settings: mean of both orientations
T46 chain: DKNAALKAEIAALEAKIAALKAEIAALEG

4H3664-AA = biological target: T47, 4H3664-AA; experiment: two-hybrid library CCmax; settings: mean of both orientations
T47 chain: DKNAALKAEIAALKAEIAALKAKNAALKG

4H369-AA = biological target: T48, 4H369-AA; experiment: two-hybrid library CCmax; settings: mean of both orientations
T48 chain: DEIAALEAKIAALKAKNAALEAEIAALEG

4H3922-AA = biological target: T49, 4H3922-AA; experiment: two-hybrid library CCmax; settings: mean of both orientations
T49 chain: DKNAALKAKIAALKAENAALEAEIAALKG

4H4033-AA = biological target: T50, 4H4033-AA; experiment: two-hybrid library CCmax; settings: mean of both orientations
T50 chain: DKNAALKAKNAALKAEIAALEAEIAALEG

4H481-AA = biological target: T51, 4H481-AA; experiment: two-hybrid library CCmax; settings: mean of both orientations
T51 chain: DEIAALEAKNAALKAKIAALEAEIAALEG

4H55-AA = biological target: T52, 4H55-AA; experiment: two-hybrid library CCmax
T52 chain: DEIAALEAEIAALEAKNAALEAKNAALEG

4H662-AA = biological target: T53, 4H662-AA; experiment: two-hybrid library CCmax; settings: mean of both orientations
T53 chain: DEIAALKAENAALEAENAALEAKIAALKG

interaction score (4H2290-AA): 2
interaction score (4H2447-AA): -1.32
interaction score (4H2458-AA): -1.34
interaction score (4H3330-AA): -1.24
interaction score (4H716-AA): -1.57
interaction score (4H733-AA): -1.79
interaction score (4H807-AA): -1.62
interaction score (APC1015-AA): -1.41
interaction score (APC1434-AA): -1.4
interaction score (APC2237-AA): -1.58
interaction score (APC232-AA): -1.33
interaction score (APC2405-AA): -1.42
interaction score (APC3645-AA): -1.44
interaction score (APC4011-AA): -1.59
interaction score (APC4264-AA): -1.33
interaction score (APC4436-AA): -1.53
interaction score (APC5383-AA): -1.86
interaction score (APC6108-AA): -1.54
interaction score (APC7099-AA): -1.57
interaction score (APC8191-AA): -1.64
interaction score (APC8910-AA): -1.59
interaction score (APC9096-AA): -1.24
interaction score (APC9319-AA): -1.68
Binder: DKIAALEAENAALKAKNAALEAEIAALKG [4H2290-AA]

interaction score (O14-bS): -1.18
interaction score (O16-bS): 0.936
interaction score (O2-bS): -1.15
interaction score (O3-bS): -0.0513
interaction score (O4-bS): 0.126
interaction score (O5-bS): -0.394
interaction score (O6-bS): 0.332
interaction score (O7-bS): -0.1
interaction score (O8-bS): -2.39
interaction score (P8A-bN): -0.473
Binder: DENSQLEQEISELEQENSELEWKISQLKQ [O14-bS]

interaction score (4H1405-AA): -1.08
interaction score (4H175-AA): 1.87
interaction score (4H2211-AA): 1.88
interaction score (4H2238-AA): -1.22
interaction score (4H2513-AA): -1.52
interaction score (4H2536-AA): -1.01
interaction score (4H2608-AA): -0.735
interaction score (4H2614-AA): 1.52
interaction score (4H2726-AA): 0.87
interaction score (4H2935-AA): -1.84
interaction score (4H327-AA): -1.19
interaction score (4H3605-AA): 2.26
interaction score (4H3625-AA): -1.11
interaction score (4H3664-AA): -1.67
interaction score (4H369-AA): -0.585
interaction score (4H3922-AA): 0.997
interaction score (4H4033-AA): -0.407
interaction score (4H481-AA): -0.893
interaction score (4H55-AA): -1.42
interaction score (4H662-AA): 0.709
Binder: DENAALEAKIAALKAKNAALKAKIAALEG [4H1405-AA]
